This is an account of results in US20190336574A1 (TRUSTEES OF PRINCETON UNIVERSITY, published 2019).

For the test, the target named is T1, His6-SND1ΔC (SND1 residues 1-339) (human, UniProt Q7KZF4 1-339).
T1 construct: not shown: N-terminal His tag (His6, His8 or His) with TEV site, pQlink vector
T1 sequence: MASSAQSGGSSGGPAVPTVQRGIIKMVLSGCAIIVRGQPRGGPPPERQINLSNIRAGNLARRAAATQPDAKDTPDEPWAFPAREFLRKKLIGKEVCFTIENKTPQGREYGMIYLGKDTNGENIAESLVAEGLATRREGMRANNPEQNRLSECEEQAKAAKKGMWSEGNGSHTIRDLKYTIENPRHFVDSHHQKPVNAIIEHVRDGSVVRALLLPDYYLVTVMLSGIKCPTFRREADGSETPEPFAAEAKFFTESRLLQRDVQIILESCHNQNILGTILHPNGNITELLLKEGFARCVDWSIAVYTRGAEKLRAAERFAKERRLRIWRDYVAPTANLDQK
The experiment in a line: schematic that sums up the GST pull-downs of His6-SND1ΔC. From the text: FIGS. 7A-E represents determination of key regions and residues mediating the MTDH-SND1 interaction. (FIG. 7A) Schematics of MTDH fragments and mutants with indicated SND1-binding capability. + indicates binding and − indicates no binding based on results shown below. Two putative nuclear localization signals are residues 432-451 for NLS2 and residues 561-580 for NLS3. […] (FIG. 7B) Pulldown of His6-SND1ΔC by GST-tagged MTDH fragments with indicated boundaries. The bound proteins were examined by SDS-PAGE and visualized by Coomassie blue staining. […] For (FIG. 7B) and (FIG. 7C), 1/10 of the His6-SND1ΔC input was shown, and GST alone was used as a negative control. Representative results of 3 independent experiments are shown. (FIG. 7D, FIG. 7E) Lysates from HEK293T cells expressing the indicated ectopic human SND1, AGO2 or MTDH were immunoprecipitated with anti-Myc and immunoblotted with the indicated antibodies.
To further test whether the physical interaction with SND1 is critical for the function of MTDH, detailed analysis on the interaction of the proteins was conducted. SND1 contains four N-terminal Staphylococcal nuclease (SN) repeats and a C-terminal Tudor-SN hybrid domain. […] This allowed us to use the SND1ΔC fragment for the following in vitro binding studies.

B1: GST-MTDH 406-470 (other)
fusion protein: DEERASLLKSQEPIPDDQKVSDDDKEKGEGALPTGKSKKKKKKKKKQGEDNSTAQDTEELEKEIR
As for B1, the binding result is recorded as “no binding”.
